This data set in a line: label from the status in PepcDB records.

With “MVSRIPTGNRGQGNGIEQSASSHATEATPWLGVNLPYGHWLPSSARSVVSRASSLLGGLANFRWGGRPASARPAPNIRSAAIAPAQQTLPPELWQQIATLAGARPRRAMREVSLELRNASRAVVTHLTISDPAMFRQLSLYPALKSVRFKGELTLEALKALPPELEHLEIGRCTGSAISAEGLAHLASMPLKSLNLNGIEIGVEGARTLAASKSLVSLSLIGCGIGDRAAQALVASRSIQCLDLSVNRIGRDGAQALAGAPLVSLNLHNNEIGNEGARVLATSRTLTSLDVSNNGVGNAGAEAFAGNTVLKQLSLAGGMISGDGAQALADNKSLTDLDLSNNRLGDAGAQALADSESFVSLKLGGNEIGADGAEALARNVVLQSLNLSYNPIGFWGVNALGRAKLRKLDLCACAIDSDGASALARNTSLASLYLGSNRIGDDGARALAKNSTLTLLNLSGNNIHAVGAQALASNDSLITLDLSRNGIGDDGTAALACHPRLTSLNLSRNQIGSTGAQQLAKSATLAELDLSENRIGPEGAEALARSTVLTTLNVSYNAIGEAGARALAESVSLTSLDARRNGIGEDGAKVLEANTRITGTPQNPNFLAEDVPRPDVRWRD”, the protein production entry is given as “failed”.

Turning to “MVSTIIISFFIIIIAVVILVLVATRSKSPSSGGRKKVKGRAVLMKEASRRLAQNPHDIEGLFIMGDIYYQDQDWEKAYTAYSALLDRMKPLEMNKQLDVAIRYGICALKTNRLPEAKKGFLLAETINPKNLDVSYNLGYIYYLEKDYEKAVKFFKRTLILEPNSFLATKYLGYTLQHLHKYTEALPALKKALDFKPDDKEVLFAMGECFYETEATDRCLKILNHLRVDPVFGPQASLYTGMIRAKADQLERAIEDFQIGLKHTGIPMDISNELKYRLAQAYIKTQEIGQALHLLKEIQSISPGYKDAATLIMRYQELNKNKNLQIYLMSGQSEFVALCRKIVARFYPKAKVKIVDISVLAAYTDIVAEIDTSRFSDTVIFRFFRSQGTVGELLLRELHARLKEVKGGTGICMSAGTFTEEAVRFSEGRPLDLYDKTRLSNVLNSLK”, the protein production entry is reported as “failed”.

Consider “MVSVNLPWELVEEILCRVPPQSLVKFRTVCKQWNSLFDDNKFVNDHFVQSQPQLIFRTESKIYSVAVNFKGPRIEVHELPLAIPGLKSEMPIRLHDYVDCDGLLFCTSYFNGVLIWNPWLRQTRFFPSIHRYPVTYDIGYDNKKQYKMLDYYKCEGDSSIKSIIYEIGLYSKKVKDLESDSTWSIFQSNSVSLNGTLYWAGVDVNNGIFIRSFSFSTEKPRTFCSLPFMYDDDNVLALAVFRKDRLSLLNLCNKTSEIKIWLTKNNINDREVGLEEDVVWINLMTVLIPNFPKFSFYWYNRPDLTYFLDNDDAKRLVICCYDETDQAYIYIVKGDMFKKIKIDQYEVLSDYSRPHFHTYIPSLVRPSRVKEDNKN”, for which the protein production entry is on record as “failed”.

“MVTIPIFLIIIGATMAVVVWSAKRTKSAADFYTAGGGITGTQNGWAIAGDYMSAASFLGISGMISLYGYDGFMYSVGWLVAYITVLLIVAEPCRNAGKYTLGDILSFRTEPKVVRAVCAISVVAVSTFYLTAQMVGAGKLMQLLLGIPYKFAIIGVGILMVGYVVFGGMTATTWVQIIKAGLLMTGAGLLSVLVGLKAGMNPFTFFNDIATNPNIIEHVQKAVLKDPVAVAGFDYGQRFLEPGLFLKNPLDQISLGMALVLGTAGMPHILMRFFTVPTAQAARKSVIVAMFIIGSFYILTTLLGFGAAIHVTPQGITAVDKGGNMAAMMLAQQLGGDISPFLGDLLLAFLCAVAFATILAVVSGLVLAASAAIAHDIYVNVIKDGHADQHEQVMAARITSLCVGAMGIIIGIAAEKQNVAHLVALAFAVASSGNLPVVVMSLFWRKFNTAGVVSGLVVGTVASIALVMVSPNMTYPKVVAADAQKVVTKLEEKQAGGAVLTEKEMKDLDKAKADYAKNKDGKSMLGLDKPLIKLKNPGIISIPLGFLAAIIGCLAFPSRRSEEMFDEIYVRQNTGIGMAKAIDH”: the protein production entry was “failed”.

Turning to “MVTSEGLASVDSWLYRQGFNVDSWLLSDTFSHDNDLLARALHTTVTAPHTLTPSSAFFDSSAVSHPSSTNTLSSTVSGASDPEIIGGGAKRKRNCLLTDGKAAKRRARASKKSQTTFITADPSNFRQMVQQVTGAKYIDDSSSFGIFDPIVKPEPLRFVNKLPCGPSDRSTAVPMLDTSAFLSNHHQENLAVGNAFSGNSSSVGLPSGKPSATADPGGSAVEFDNYPTFPTLESWKVM”, the protein production entry was “failed”.

For “MVVAPYLAVAIGGSLGAMSRYLVTIMAQNAWGIKFPYGTLLVNTLGSFLAGFFLIVLVGRFSAEESFRLFLFTGFLGAFTTFSSFAAESLFMFEQGYWFKLMTNILVNNVGSLSMVFIGTLVAKYVLLGHQGSN”, the protein production entry is “failed”.

With “MVVKMIEKYVEFIGEHELDAIFKIAEKIKDLSILHVNSTKAGGGVAEILNRMLPLMKELGLNVDWKVIKGDNEFFNVTKSFHNSLQNGTGNIPDEYFKIYDKWQEINLSEIPLDYDIMFIHDPQPAGLIKFKKGNSNKWIWRCHIDISNPYPPVWNFLRKYISKYDSMIISVPSFGRDDIEIPQFVIPPSIDPLSIKNRDMSETTILRILYKFGINLEKPLITQVSRFDYAKDPLGVIQAYKLAKRHVDIQLLYVGSPATDDPEGEKVYSEVVKASEGDKDIHLLMLPPYSDLEINVFQTASTVVMQKSIKEGFGLTVSEAMWKRKPVIGGNTGGIPLQVINGITGFLVNSPQGASHYIIYLIRNEEIRRRLGTNAREHIRRNFLITRELRDYLMTIVYVANRGLASLNSHESISNHLEHHHHHH”, the protein production result was “failed”.

With “MVVMIKLRDELGTATTDSAQKILLLGSGELGKEIAIEAQRLGVEVVAVDRYANAPAMQVAHRSYVGNMMDKDFLWSVVEREKPDAIIPEIEAINLDALFEFEKDGYFVVPNARATWIAMHRERLRETLVKEAKVPTSRYMYATTLDELYEACEKIGYPCHTKAIMSSSGKGSYFVKGPEDIPKAWEEAKTKARGSAEKIIVEEHIDFDVEVTELAVRHFDENGEIVTTFPKPVGHYQIDGDYHASWQPAEISEKAEREVYRIAKRITDVLGGLGIFGVEMFVKGDKVWANEVSPRPHDTGMVTLASHPPGFSEFALHLRAVLGLPIPGEWVDGYRLFPMLIPAATHVIKAKVSGYSPRFRGLVKALSVPNATVRLFGKPEAYVGRRLGIALAWDKDVEVAKRKAEMVAHMIELRTRSSDWHDQNYEKRKHLLR”, the protein production entry is recorded as “not failed”.

Consider “MVVMSKVLLNIGCADVDKPGYINVDARKTKVTHLVSNAWDLDCFEENSVHEIYSRHMLEHLNPEYAKLALQKWFYILEPEGKLVVIVPDIEFHARQLLGVSRSSFGDQMEHAFAGFWGWREKERGGSDFDAHQWGYTVATLENEIGAVGFERIERVVEGVDSEPWHLQMTARKPMTSLCCPMDFRGPFPLEHHHHHH”, for which the protein production entry is on record as “not failed”.

With “MVVNESMYQLGSVRSAIRELFEYGKKRAAIVGKENVYDFSIGNPSIPAPQIVNDTIKELVTDYDSVALHGYTSAQGDVETRAAIAEFLNNTHGTHFNADNLYMTMGAAASLSICFRALTSDAYDEFITIAPYFPEYKVFVNAAGARLVEVPADTEHFQIDFDALEERINAHTRGVIINSPNNPSGTVYSEETIKKLSDLLEKKSKEIGRPIFIIADEPYREIVYDGIKVPFVTKYYDNTLVCYSYSKSLSLPGERIGYVLVPDEVYDKAELYAAVCGAGRALGYVCAPSLFQKMIVKCQGATGDINAYKENRDLLYEGLTRIGYHCFKPDGAFYMFVKALEDDSNAFCEKAKEEDVLIVAADGFGCPGWVRISYCVDREMIKHSMPAFEKIYKKYNK”, the protein production entry is listed as “not failed”.

With “MVVRTWRSMQERYNLIGSKCKTCGTVYFPARSVCPECRRKGELEDYKLNGKGKVYTYSVVYAAPKDFEKQSPYVIGIVELEEGTKITSQIDCEPEEVKIGMPVEATFRKIREDGCDGVISYGYKFVPTEQLEHHHHHH”, the protein production entry was “failed”.

Regarding “MVVSIGVFDGVHIGHQKVLRTMKEIAFFRKDDSLIYTISYPPEYFLPDFPGLLMTVESRVEMLSRYARTVVLDFFRIKDLTPEGFVERYLSGVSAVVVGRDFRFGKNASGNASFLRKKGVEVYEIEDVVVQGKRVSSSLIRNLVQEGRVEEIPAYLGRYFEIEGIVHKDREFGRKLGFPTANIDRGNEKLVDLKRGVYLVRVHLPDGKKKFGVMNVGFRPTVGDARNVKYEVYILDFEGDLYGQRLKLEVLKFMRDEKKFDSIEELKAAIDQDVKSARNMIDDIINSKFEKEG”, the protein production entry is recorded as “not failed”.

“MVWWWRALGPSGEGQPGPLPSSLFPVIDPSRPTMQDIECLGVYTSGGDAPGMNACLRAVVRTAIANDIAVMGIRRGYEGMIEADFVEMERRSVSNILQSGGTILKSARSEAFRTEEGRRAAANSLRENGIDALVAIGGDGTFRGASKLYDEHGLGVVGCPGTIDNDLYGTDQTIGYDTALNTAIDNIDRIRDTADAHNRLFLVEVMGRDAGFIALNSGIGGGAELILIPETITEMDMVKERILSLMTAQRRSTIVVVAEGDELGGAQGIERALRDDAAFSDIELRSTILGHTQRGGAPTASDRVLASRLGVAAVESLMDGHSDVMVGMTNNEIKLTPLRNVYGRRKSIDYDLLKLTQILS”: the protein production entry is on record as “failed”.

Consider “MVYRDDYFIRHSISVSAVIVRAWITHKYSGRDWNVKWEENLLHAVAKNYTLLQTIPPFERPFKDHQVCLEWNMGYIWNLRANRIPQCPLENDVVALLGFPYASSGENTGIVKKFPRFRNRELEATRRQRMDYPVFTVSLWLYLLHYCKANLCGILYFVDSNEMYGTPSVFLTEEGYLHIQMHLVKGEDLAVKTKFIIPLKEWFRLDISFNGGQIVVTTSIGQDLKSYHNQTISFREDFHYNDTAGYFIIGGSRYVAGIEGFFGPLKYYRLRSLHPAQIFNPLLEKQLAEQIKLYYERCAEVQEIVSVYASAAKHGGERQEACHLHNSYLDLQRRYGRPSMCRAFPWEKELKDKHPSLFQALLEMDLLTVPRNQNESVSEIGGKIFEKAVKRLSSIDGLHQISSIVPFLTDSSCCGYHKASYYLAVFYETGLNVPRDQLQGMLYSLVGGQGSERLSSMNLGYKHYQGIDNYPLDWELSYAYYSNIATKTPLDQHTLQGDQAYVETIRLKDDEILKVQTKEDGDVFMWLKHEATRGNAAAQQRLAQMLFWGQQGVAKNPEAAIEWYAKGALETEDPALIYDYAIVLFKGQGVKKNRRLALELMKKAASKGLHQAVNGLGWYYHKFKKNYAKAAKYWLKAEEMGNPDASYNLGVLHLDGIFPGVPGRNQTLAGEIFHKAAQGGHMEGTLWCSLYYITGNLETFPRDPEKAVVWAKHVAEKNGYLGHVIRKGLNAYLEGSWHEALLYYVLAAETGIEVSQTNLAHICEERPDLARRYLGVNCVWRYYNFSVFQIDAPSFAYLKMGDLYYYGHQNQSQDLELSVQMYAQAALDGDSQGFFNLALLIEEGTIIPHHILDFLEIDSTLHSNNISILQELYERCWSHSNEESFSPCSLAWLYLHLRLLWGAILHSALIYFLGTFLLSILIAWTVQYFQSVSASDPPPRPSQASPDTATSTASPAVTPAADASDQDQPTVTNNPEPRG”, for which the protein production entry was “failed”.

On to “MWESKFVKEGLTFDDVLLVPAKSDVLPREVSVKTVLSESLQLNIPLISAGMDTVTEADMAIAMARQGGLGIIHKNMSIEQQAEQVDKVKRSESGVISDPFFLTPEHQVYDAEHLMGKYRISGVPVVNNLDERKLVGIITNRDMRFIQDYSIKISDVMTKEQLITAPVGTTLSEAEKILQKYKIEKLPLVDNNGVLQGLITIKDIEKVIEFPNSAKDKQGRLLVGAAVGVTADAMTRIDALVKASVDAIVLDTAHGHSQGVIDKVKEVRAKYPSLNIIAGNVATAEATKALIEAGANVVKVGIGPGSICTTRVVAGVGVPQLTAVYDCATEARKHGIPVIADGGIKYSGDMVKALAAGAHVVMLGSMFAGVAESPGETEIYQGRQFKVYRGMGSVGAMEKGSKDRYFQEGNKKLVPEGIEGRVPYKGPLADTVHQLVGGLRAGMGYCGAQDLEFLRENAQFIRMSGAGLLESHPHHVQITKEAPNYSL”, for which the protein production entry is “not failed”.

For the origin of these results see a protein production outcome set (Wang et al. 2014).
